Source: patent US20140087995A1 (published 2014)
Each block holds one binder with its values, some of them ahead of it. Numbered stars: 1 amine (or outer) side, 2 acyl side, 3 side chain; on linkers, the order of the positions; unused ones are H or OH. Bridge positions count the residues as written; N and C are the ends. Side chains are listed from the residue outwards. Ends that are not written are not given here. * marks the point of attachment. C20 diacid = O=C(O)CCCCCCCCCCCCCCCCCCC(=O)*; γGlu = O=C(O)[C@H](CCC(=O)[*:2])N[*:1]; AEEA = NCCOCCOCC(=O)O

Biological target: T1, human calcitonin receptor (human, UniProt P30988 25-474)
T1 sequence (looked up): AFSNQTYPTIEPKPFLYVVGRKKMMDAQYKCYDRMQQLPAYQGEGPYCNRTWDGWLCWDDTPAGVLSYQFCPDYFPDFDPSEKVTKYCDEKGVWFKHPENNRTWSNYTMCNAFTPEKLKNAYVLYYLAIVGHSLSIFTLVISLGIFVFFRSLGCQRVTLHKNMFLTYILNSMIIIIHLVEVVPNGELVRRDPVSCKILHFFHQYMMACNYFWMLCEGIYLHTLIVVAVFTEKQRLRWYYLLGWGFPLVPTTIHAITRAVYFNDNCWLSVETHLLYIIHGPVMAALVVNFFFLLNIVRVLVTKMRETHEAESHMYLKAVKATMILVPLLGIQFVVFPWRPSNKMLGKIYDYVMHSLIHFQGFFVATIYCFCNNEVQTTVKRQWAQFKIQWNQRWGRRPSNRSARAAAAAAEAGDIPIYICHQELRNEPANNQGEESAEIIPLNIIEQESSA
Test: cell-based or functional assay

B1: N^ε1-[2-[2-[2-[[(4S)-4-carboxy-4-(19-carboxynonadecanoylamino)butanoyl]amino]ethoxy]ethoxy]acetyl]-[Arg17,Pro21,Pro27]-h-amylin (peptide)
peptide: K([AEEA-γGlu-C20 diacid])CNTATCATQRLANFLRHSSPNFGAIPSSTNVGSNTY-NH2
modifications: disulfide 2-7; N-terminus assumed
SMILES: CC[C@H](C)[C@H](NC(=O)[C@H](C)NC(=O)CNC(=O)[C@H](Cc1ccccc1)NC(=O)[C@H](CC(N)=O)NC(=O)[C@@H]1CCCN1C(=O)[C@H](CO)NC(=O)[C@H](CO)NC(=O)[C@H](Cc1c[nH]cn1)NC(=O)[C@H](CCCNC(=N)N)NC(=O)[C@H](CC(C)C)NC(=O)[C@H](Cc1ccccc1)NC(=O)[C@H](CC(N)=O)NC(=O)[C@H](C)NC(=O)[C@H](CC(C)C)NC(=O)[C@H](CCCNC(=N)N)NC(=O)[C@H](CCC(N)=O)NC(=O)[C@@H](NC(=O)[C@H](C)NC(=O)[C@@H]1CSSC[C@H](NC(=O)[C@@H](N)CCCCNC(=O)COCCOCCNC(=O)CC[C@H](NC(=O)CCCCCCCCCCCCCCCCCCC(=O)O)C(=O)O)C(=O)N[C@@H](CC(N)=O)C(=O)N[C@@H]([C@@H](C)O)C(=O)N[C@@H](C)C(=O)N[C@@H]([C@@H](C)O)C(=O)N1)[C@@H](C)O)C(=O)N1CCC[C@H]1C(=O)N[C@@H](CO)C(=O)N[C@@H](CO)C(=O)N[C@H](C(=O)N[C@@H](CC(N)=O)C(=O)N[C@H](C(=O)NCC(=O)N[C@@H](CO)C(=O)N[C@@H](CC(N)=O)C(=O)N[C@H](C(=O)N[C@@H](Cc1ccc(O)cc1)C(N)=O)[C@@H](C)O)C(C)C)[C@@H](C)O
notes: analogue of human amylin; also called compound 41
hCTR funct. EC50: 4.35 nM

B5: N^ε-[(4S)-4-carboxy-4-(19-carboxynonadecanoylamino)butanoyl]Lys[Arg1,Arg17,Pro21,Pro27,His35]-h-amylin (peptide)
peptide: K([γGlu-C20 diacid])RCNTATCATQRLANFLRHSSPNFGAIPSSTNVGSHTY-NH2
modifications: disulfide 3-8; N-terminus assumed
SMILES: CC[C@H](C)[C@H](NC(=O)[C@H](C)NC(=O)CNC(=O)[C@H](Cc1ccccc1)NC(=O)[C@H](CC(N)=O)NC(=O)[C@@H]1CCCN1C(=O)[C@H](CO)NC(=O)[C@H](CO)NC(=O)[C@H](Cc1c[nH]cn1)NC(=O)[C@H](CCCNC(=N)N)NC(=O)[C@H](CC(C)C)NC(=O)[C@H](Cc1ccccc1)NC(=O)[C@H](CC(N)=O)NC(=O)[C@H](C)NC(=O)[C@H](CC(C)C)NC(=O)[C@H](CCCNC(=N)N)NC(=O)[C@H](CCC(N)=O)NC(=O)[C@@H](NC(=O)[C@H](C)NC(=O)[C@@H]1CSSC[C@H](NC(=O)[C@H](CCCNC(=N)N)NC(=O)[C@@H](N)CCCCNC(=O)CC[C@H](NC(=O)CCCCCCCCCCCCCCCCCCC(=O)O)C(=O)O)C(=O)N[C@@H](CC(N)=O)C(=O)N[C@@H]([C@@H](C)O)C(=O)N[C@@H](C)C(=O)N[C@@H]([C@@H](C)O)C(=O)N1)[C@@H](C)O)C(=O)N1CCC[C@H]1C(=O)N[C@@H](CO)C(=O)N[C@@H](CO)C(=O)N[C@H](C(=O)N[C@@H](CC(N)=O)C(=O)N[C@H](C(=O)NCC(=O)N[C@@H](CO)C(=O)N[C@@H](Cc1c[nH]cn1)C(=O)N[C@H](C(=O)N[C@@H](Cc1ccc(O)cc1)C(N)=O)[C@@H](C)O)C(C)C)[C@@H](C)O
notes: analogue of human amylin, extended by Lys at the N-terminus; also called compound 44
hCTR funct. EC50: 4.75 nM

B6: N^-1-[(4S)-4-carboxy-4-(19-carboxynonadecanoylamino)butanoyl]-Gly[Arg1,Arg17,Pro21,Pro27]-h-amylin (peptide)
peptide: {C20 diacid-γGlu}-GRCNTATCATQRLANFLRHSSPNFGAIPSSTNVGSNTY-NH2
modifications: disulfide 3-8
SMILES: CC[C@H](C)[C@H](NC(=O)[C@H](C)NC(=O)CNC(=O)[C@H](Cc1ccccc1)NC(=O)[C@H](CC(N)=O)NC(=O)[C@@H]1CCCN1C(=O)[C@H](CO)NC(=O)[C@H](CO)NC(=O)[C@H](Cc1c[nH]cn1)NC(=O)[C@H](CCCNC(=N)N)NC(=O)[C@H](CC(C)C)NC(=O)[C@H](Cc1ccccc1)NC(=O)[C@H](CC(N)=O)NC(=O)[C@H](C)NC(=O)[C@H](CC(C)C)NC(=O)[C@H](CCCNC(=N)N)NC(=O)[C@H](CCC(N)=O)NC(=O)[C@@H](NC(=O)[C@H](C)NC(=O)[C@@H]1CSSC[C@H](NC(=O)[C@H](CCCNC(=N)N)NC(=O)CNC(=O)CC[C@H](NC(=O)CCCCCCCCCCCCCCCCCCC(=O)O)C(=O)O)C(=O)N[C@@H](CC(N)=O)C(=O)N[C@@H]([C@@H](C)O)C(=O)N[C@@H](C)C(=O)N[C@@H]([C@@H](C)O)C(=O)N1)[C@@H](C)O)C(=O)N1CCC[C@H]1C(=O)N[C@@H](CO)C(=O)N[C@@H](CO)C(=O)N[C@H](C(=O)N[C@@H](CC(N)=O)C(=O)N[C@H](C(=O)NCC(=O)N[C@@H](CO)C(=O)N[C@@H](CC(N)=O)C(=O)N[C@H](C(=O)N[C@@H](Cc1ccc(O)cc1)C(N)=O)[C@@H](C)O)C(C)C)[C@@H](C)O
notes: analogue of human amylin, extended by Gly at the N-terminus; also called compound 46
hCTR funct. EC50: 0.899 nM

Next, values leading:

Ratio hCT/hAmylin funct.: 12
hCTR funct. EC50: 2.7 nM
B2: N^ε1-[(4S)-4-carboxy-4-[[(4S)-4-carboxy-4-(19-carboxynonadecanoylamino)butanoyl]amino]butanoyl]-[Asp14,Arg17,Pro21,Pro26,Asp35]-h-amylin (peptide)
peptide: K([γGlu-γGlu-C20 diacid])CNTATCATQRLADFLRHSSPNFGAPLSSTNVGSDTY-NH2
modifications: disulfide 2-7; N-terminus assumed
SMILES: CC(C)C[C@H](NC(=O)[C@H](CCCNC(=N)N)NC(=O)[C@H](CCC(N)=O)NC(=O)[C@@H](NC(=O)[C@H](C)NC(=O)[C@@H]1CSSC[C@H](NC(=O)[C@@H](N)CCCCNC(=O)CC[C@H](NC(=O)CC[C@H](NC(=O)CCCCCCCCCCCCCCCCCCC(=O)O)C(=O)O)C(=O)O)C(=O)N[C@@H](CC(N)=O)C(=O)N[C@@H]([C@@H](C)O)C(=O)N[C@@H](C)C(=O)N[C@@H]([C@@H](C)O)C(=O)N1)[C@@H](C)O)C(=O)N[C@@H](C)C(=O)N[C@@H](CC(=O)O)C(=O)N[C@@H](Cc1ccccc1)C(=O)N[C@@H](CC(C)C)C(=O)N[C@@H](CCCNC(=N)N)C(=O)N[C@@H](Cc1c[nH]cn1)C(=O)N[C@@H](CO)C(=O)N[C@@H](CO)C(=O)N1CCC[C@H]1C(=O)N[C@@H](CC(N)=O)C(=O)N[C@@H](Cc1ccccc1)C(=O)NCC(=O)N[C@@H](C)C(=O)N1CCC[C@H]1C(=O)N[C@@H](CC(C)C)C(=O)N[C@@H](CO)C(=O)N[C@@H](CO)C(=O)N[C@H](C(=O)N[C@@H](CC(N)=O)C(=O)N[C@H](C(=O)NCC(=O)N[C@@H](CO)C(=O)N[C@@H](CC(=O)O)C(=O)N[C@H](C(=O)N[C@@H](Cc1ccc(O)cc1)C(N)=O)[C@@H](C)O)C(C)C)[C@@H](C)O
notes: analogue of human amylin; also called compound 1

hCTR funct. EC50: 3 nM
B3: N^ε1-[(4S)-4-carboxy-4-[[(4S)-4-carboxy-4-(19-carboxynonadecanoylamino)butanoyl]amino]butanoyl]-[Asp14,Arg17,Pro21,Pro27,Asp35]-h-amylin (peptide)
peptide: K([γGlu-γGlu-C20 diacid])CNTATCATQRLADFLRHSSPNFGAIPSSTNVGSDTY-NH2
modifications: disulfide 2-7; N-terminus assumed
SMILES: CC[C@H](C)[C@H](NC(=O)[C@H](C)NC(=O)CNC(=O)[C@H](Cc1ccccc1)NC(=O)[C@H](CC(N)=O)NC(=O)[C@@H]1CCCN1C(=O)[C@H](CO)NC(=O)[C@H](CO)NC(=O)[C@H](Cc1c[nH]cn1)NC(=O)[C@H](CCCNC(=N)N)NC(=O)[C@H](CC(C)C)NC(=O)[C@H](Cc1ccccc1)NC(=O)[C@H](CC(=O)O)NC(=O)[C@H](C)NC(=O)[C@H](CC(C)C)NC(=O)[C@H](CCCNC(=N)N)NC(=O)[C@H](CCC(N)=O)NC(=O)[C@@H](NC(=O)[C@H](C)NC(=O)[C@@H]1CSSC[C@H](NC(=O)[C@@H](N)CCCCNC(=O)CC[C@H](NC(=O)CC[C@H](NC(=O)CCCCCCCCCCCCCCCCCCC(=O)O)C(=O)O)C(=O)O)C(=O)N[C@@H](CC(N)=O)C(=O)N[C@@H]([C@@H](C)O)C(=O)N[C@@H](C)C(=O)N[C@@H]([C@@H](C)O)C(=O)N1)[C@@H](C)O)C(=O)N1CCC[C@H]1C(=O)N[C@@H](CO)C(=O)N[C@@H](CO)C(=O)N[C@H](C(=O)N[C@@H](CC(N)=O)C(=O)N[C@H](C(=O)NCC(=O)N[C@@H](CO)C(=O)N[C@@H](CC(=O)O)C(=O)N[C@H](C(=O)N[C@@H](Cc1ccc(O)cc1)C(N)=O)[C@@H](C)O)C(C)C)[C@@H](C)O
notes: analogue of human amylin; also called compound 2

hCTR funct. EC50: 14.1 nM
B4: N^ε1-[(4S)-4-carboxy-4-[[(4S)-4-carboxy-4-(19-carboxynonadecanoylamino)butanoyl]amino]butanoyl]-[Asp14,Arg17,Pro21,Pro27,Arg35]-h-amylin (peptide)
peptide: K([γGlu-γGlu-C20 diacid])CNTATCATQRLADFLRHSSPNFGAIPSSTNVGSRTY-NH2
modifications: disulfide 2-7; N-terminus assumed
SMILES: CC[C@H](C)[C@H](NC(=O)[C@H](C)NC(=O)CNC(=O)[C@H](Cc1ccccc1)NC(=O)[C@H](CC(N)=O)NC(=O)[C@@H]1CCCN1C(=O)[C@H](CO)NC(=O)[C@H](CO)NC(=O)[C@H](Cc1c[nH]cn1)NC(=O)[C@H](CCCNC(=N)N)NC(=O)[C@H](CC(C)C)NC(=O)[C@H](Cc1ccccc1)NC(=O)[C@H](CC(=O)O)NC(=O)[C@H](C)NC(=O)[C@H](CC(C)C)NC(=O)[C@H](CCCNC(=N)N)NC(=O)[C@H](CCC(N)=O)NC(=O)[C@@H](NC(=O)[C@H](C)NC(=O)[C@@H]1CSSC[C@H](NC(=O)[C@@H](N)CCCCNC(=O)CC[C@H](NC(=O)CC[C@H](NC(=O)CCCCCCCCCCCCCCCCCCC(=O)O)C(=O)O)C(=O)O)C(=O)N[C@@H](CC(N)=O)C(=O)N[C@@H]([C@@H](C)O)C(=O)N[C@@H](C)C(=O)N[C@@H]([C@@H](C)O)C(=O)N1)[C@@H](C)O)C(=O)N1CCC[C@H]1C(=O)N[C@@H](CO)C(=O)N[C@@H](CO)C(=O)N[C@H](C(=O)N[C@@H](CC(N)=O)C(=O)N[C@H](C(=O)NCC(=O)N[C@@H](CO)C(=O)N[C@@H](CCCNC(=N)N)C(=O)N[C@H](C(=O)N[C@@H](Cc1ccc(O)cc1)C(N)=O)[C@@H](C)O)C(C)C)[C@@H](C)O
notes: analogue of human amylin; also called compound 52
